Source: patent US20050074840A1

Target: human TNF-alpha (hTNF-alpha) (human) (UniProt P01375)
Assay: saturation binding of [125I]TNF-alpha on yeast

| Kd | Substance |
| --- | --- |
| 1.71 nM | mutant clone 6 TNFrED-agglutinin fusion (H34P + S57I) displayed on yeast (from UniProt P20840 330-650) |
| 2.04 nM | wild-type TNFrED-agglutinin fusion displayed on the surface of S. cerevisiae BJ2168 (from UniProt P20840 330-650) |
| 1.31 nM | mutant clone 11 TNFrED-agglutinin fusion (S87P) displayed on yeast (from UniProt P20840 330-650) |
